Laboratory results from patent publication US11479601B2, “Antibodies specific to Sonic Hedgehog and method of use thereof” (The Regents of the University of California, priority 2016, dated 2022).

Columns and labels:
[1] = biological target: T1, full-length Shh polypeptide (Homo sapiens, UniProt Q15465); test: Flow cytometry: binding of C-terminal Shh antibodies to full-length Shh expressed in transfected cells; settings: antibody at 1:10 (Commercial at 1:50)
T1 construct: Expression of full-length Shh polypeptide in transfected cells; expressed in transfected cells; pCMV-Shh plasmid (Origene)
Protocol: FACS (1:40). The secondary antibody was a donkey anti-mouse FITC-linked antibody (ab97029, 1:100, Abcam). For cell analysis after treatment assays (chemotherapy or GDC0449), a dead cell marker (SytoxRed, Invitrogen) was also used. For human fresh samples, an anti-CD45 APC-linked antibody (ab28106, 1:100, Abcam), and a dead cells marker (SytoxRed, Invitrogen) were added. For staining of stable transfected cell lines, mouse anti-HA antibody (Abcam, 1:100) and rabbit anti-FLAG antibody (Cell Signaling; 1:400) were used. Corresponding secondary antibodies were donkey anti-mouse AlexaFluor647 (Invitrogen, 1:1000) and donkey anti-rabbit AlexFluor594 (Invitrogen, 1:1000) antibodies. Flow cytometry analyses were performed on AccuriC6 flow cytometer (BD Biosciences), and FACS on FACSAria II (BD Biosciences). Flow analyses were based at least on 200,000 cells, and each test was made at least in triplicate. For all experiments, a negative control with cells processed without primary antibody was used. […]
Expression of full-length Shh polypeptide in transfected cells increased the percentage of cells labeled with the Shh antibodies produced by two of the subclones (2D9 and 2G4) identified after the screening, compared to the percentage of untransfected cells labeled by the same antibodies, as measured by flow cytometry (Table 3).

Shh in A549 cells = biological target: T2, Shh in A549 cells (Homo sapiens, UniProt Q15465); test: Flow cytometry of purified antibodies on A549 cells (vector control or pCMV-Shh); format: binding
T2 construct: 1) 293T (endogenous Shh), 2) 293T (bearing exogenously transfected Shh) and 3) A549 (Shh-expressing); endogenous in cells; host or cells: 293T and A549 (endogenous); also 293T and A549 transiently transfected with pCMV-Shh (Origene)
Protocol: A549, 293T or 293T (+pCMV Shh) cells were labeled with Sonic Hedgehog (Shh) antibody (Abcam 53281, 1:100) or therapeutic test antibodies (1:100) for 1 hour at RT post serum blocking. Following two PBS washes, a FITC-conjugated secondary antibody (Abcam 97029, 1:100) or an Alexa-Fluor 647 (Invitrogen, 1:1000) was used to label cells. Samples were screened by flow cytometry using an Accuri™ C6 machine (BD Biosciences). For fluorescence activated cell sorting, samples were sorted using an S3e™ Cell Sorter (Bio-Rad) and the Shh+ population was collected. For all experiments, cells processed without primary antibody served as a negative control. Experiments were performed in duplicates or triplicates.
For the purpose of selecting the best C-term Shh antibodies from over 50 hybridoma clones, two sets of screening assays were designed. First, the same Shh C-term peptides (AA 247-264 and 448-462, KLH-free version) used to mount an immune response in mice was employed in an ELISA-based assay with supernatants from antibody-producing hybridoma clonal cells. […] To confirm specific recognition, A549 (+vector control) cells and A549 cells transfected with exogenous Shh were labeled with 2G4 and 2D9 and assessed via flow cytometry. […] Finally, the Kd values of both antibodies with recombinant full-length Shh were calculated and nanomolar binding affinities were observed (FIG. 48C).

[2] = tested on: Shh 247-264 AA and Shh 448-462 AA peptides; test: Biolayer interferometry (Octet RED 384) with Shh peptide-mimic ligands; format: binding, human; settings: 37-3000 nM peptides; versus IgG control antibody
Protocol: Antibody immobilization was checked via Octet® Software (ForteBio) prior to introduction of increasing concentrations (37, 111, 333, 1000, 3000 nM) of Sonic Hedgehog peptide-mimic ligands (Shh 247-264 AA and Shh 448-462 AA). Graphical output from the Octet® Software of representative data from two independent experiments is presented.

[3] = tested on: other lung and pancreatic cancer cell lines; test: CellTiter-Glo cell viability assay, other cancer cell lines; format: cell-based; settings: 96 hours
Protocol: Logarithmically growing cells were plated in antibiotic-free medium supplemented with 2% fetal bovine serum at a density of 5,000 cells per well in clear-bottom 96-well plates. The next day cells were treated (triplicates) with increasing doses of in-house therapeutic antibodies (reconstituted in PBS) or PBS controls for 96 hours and subsequently assessed for cell viability by measuring ATP content with CellTiter-Glo Luminescent Cell Viability Assay (Promega). Signal intensity was measured on a Glomax™ 96 Microplate Luminometer (Promega) and percent cell survival was calculated based on the reading of PBS control cells set as 100%.

B1: 2G4: purified mouse monoclonal C-terminal Shh antibody from hybridoma sub-clone 2G4 of clone 1C11, IgG1 kappa (antibody, V domains shown)
VH: EVKLVESGGGLVKPGGSLKLSCAASGFTFSSYTMSWVRQTPAKRLEWVATISSGGGNTYYPDSVKGRFTISRDNARNTLYLQMSSLRSEDTAMYYCARDYRSLFAYWGQGTLVTVSA
VL: QIVLTQSPAIMSASPGEKVTITCSASSSVSYMHWFQQKPGTSPKLWIYSTSNLASGVPARFSGSGSGTSYSLTISRMEAEDAATYYCQQRSSYPFTFGSGTKLEIK
percentage of cells labeled with the Shh antibody (flow cytometry) ([1]; +SHh Full-Length transfection): 2.24%
percentage of cells labeled with the Shh antibody (flow cytometry) ([1]; No transfection): 0.17%
endogenous Shh recognized (flow cytometry) (Shh in A549 cells; A549 (+vector control)): 0.5%
exogenous Shh recognized (flow cytometry) (Shh in A549 cells; A549 cells transfected with exogenous Shh): 6%
binding response to Shh peptide-mimic ligands (BLI) [2]: increases in binding response
growth of other lung and pancreatic cancer cell lines [3]: inhibited the growth
